# The nanobody polyreactivity screen of Harvey et al. (2022)
# Assay: yeast display, Sf9 membrane polyspecificity reagent, FACS + sequencing; frameworks hold sequencing errors
# Summary of the method: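 Nanobodies from a synthetic yeast display library (Saccharomyces cerevisiae BJ5465), induced 36–48 hours with galactose, were stained 1 hour at 4 °C with 10% biotinylated, detergent-solubilized Sf9 membrane reagent, enriched on streptavidin microbeads, then FACS-sorted. Anti-HA (expression) and streptavidin (reagent binding) fluorescence set low and high (top ~1%) gates. Polyreactivity labels come from the gate of origin. Genes were colony-PCR amplified, MiSeq 2 × 250 sequenced and filtered by CDR length.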
row,Sequence,polyreactivity (PSR sort gate)
1,QVHLVESGGGLVQAGGSLRLSCAASGFTFRRYAMGWDRQAPGKERELVASISSGGSTNYADSVKGRCTISRDNAKNTVYLQMNSLIPEDTAVYYCAVSYRSFRYYWERYYSWGQGTQVTVSS,high polyreactivity
2,QVQLVESGGGLVQAGGSLRLSCAASGSIFDFYGMGWYRQAPGKERELVATITGTGGGTYYADSVKGRFTISRDNAKNTVYLQMNSLKPEDTAVYYCAADYPYGYWRGLFYYWGHGTQVTVSS,low polyreactivity
3,QVQLVESGGGLVQAGGSLRLSCAASGRIFVGYAMGWYIQAPGKERELVAAINRSGSSTYYADSVKGRFTISRDNAKNTVYLQMNRLKPEDTAVYYCNARSGNRYGPRYDYWGQGTQVTVSS,high polyreactivity
4,QVQLVESGGCLVQAGGSLRLSCAASGSTFFSYAMGWYRQAPGKESEFVAANTYSSGRTYYADSVKGRFTISRDNAKNTVYLQMHSLKAEDSAVYSCSTPGFVWGRGYDYWGQGTHVTVSS,high polyreactivity
5,QVQLVESGGGLVQAGGSLRLSCAASGSTFRVNVMGWYRQATGKERELVAAITTSGGSTYYADSVKGRFSISRDNAQNTVYFQMNSLKPEDTAVYYCNTTYPSGWGPDMDYWGQGTQVTVSS,low polyreactivity
6,QDQLVESGGGLVQAGGRLRLSCAAYGRIFRRYAMGWYRQAPGKEREFVAAISSGGSTYYADSVKVRFTISRDNAKKYRLFTAEQPETGRYRGLLLRCVRYDVNVYDYWGQGTQVTVSS,low polyreactivity
7,QVQLVESGGGLVQAGGSLRLSCAASGSIFGEYAMGWYRQAPGKERELVAAINVNGGRTYYADSVKGRFTISRDNAKNTVYLQMNSLKPEDTAVYYCNARSYASYRQGNTYGSWGQGTQVTVSS,high polyreactivity
8,QVQLVESGGGLVQAGGSLRLSCAASGITIVNYVMGWYRQAPGKERELVAAISIGGGTYYADSVKGRFTISRDNAKNTVYLQMNSLKPEDTAVYYCNASYGGLSFYIGVYVTGYYYWGQGTQVTVSS,low polyreactivity
9,QVQLVESGGGLVQAGGSLRLSCAASGITFYGYAMGWYRQAPGKERELVAAISKSGGSTHYADSVKGRFTISRDNAKNTVYLQMNSLKPEDTAVYYCAAAYWTRLRRMDYWGQGTQVTVSS,low polyreactivity
10,QVQLVESGGGLVQAGGSLRLSCAATVLKFGKNPMGSYRQATGKERELVAVISWRGSSTYYADSVKGRFTISRVNAKNTVFLQMNSLKPEDTAVYYCTDVYVYVHYQPGYYWGQGTQVTVSS,low polyreactivity
11,QVQLVESGGGLVQAGGSLRLSCAASGRTFAYNAMGWYRPAPGKEREFVAGISRSGGSTYYADSVKGRFTISRDNAKNTVYLQMNSLKPEDTAVYYCAAQFYALPNVGTKYYSWGQGTQVTVSS,low polyreactivity
12,QVQLVESGGGLVQAGGSLRLSCAASGSTLRYYAMGWYRQAPGKEREWVAAISTGGSTYYADSVKGRFTISRDNAKKTVYLQMHSLKPEDTAVYYCAAEPWANTPGEAGSPFDYWGQGTQVTVSS,low polyreactivity
13,QVQLVESGGGLVQAGGSLRLSCGASGFIFGSYAMGWYRQAPGKERELVAAISWSGGGTYYADSVKGRFTISRDNAKNTVYLQMNRLNPEDTAVYYCGALTRYKTASGYDYWGQGTQVTVSS,high polyreactivity
14,QVQIVESGGGLVQAGGSLRLSCAASGSIFDKNAMGWYRQAPGKEREFVAAITWSDGNTYYADSVKGRFTISRDNAKNTVYLQMNSLKREHTAVYYCNADALGVFWDRGGWFDDYWGQGTQVTVSS,low polyreactivity
15,QVQLVESGGGLVQAGGSLRLSCAASGSTLGYNAMGCYRQAPGKERELVAAIRGGDDDTYYADSVKGRFTISRDNAKNTVYLQMNSMNPEDTAVYYCATGDTSIPYSPPGGYDSWGQGTQVTVSS,low polyreactivity
16,QVQLVESGGGLVQARGSLRLSSAASGRTFHYNAMGWYRQAPGKERELVAAISFNGGGTYYADSVKGRFTISRDNAKNTVYLQMNCLKTEDTAVYYCATDVPSRYDYWGQGTQVTVSS,low polyreactivity
17,QVQLVESGGGLVQAGGSLRLSCAASGSTLTSNAMGWYRQAPGKERELVAAIRSGGSTNYADSVKGRFTISRDNAKNTVYLQMNSLKPEDTAVYYCNKDFLWQGYGYSRVSYDYWGQGTQVTVSS,low polyreactivity
18,QVQLVESVGGLVQAGGSLRLSCAASGFTFGRYAMGWYRQAPGKESELVATITRTGSTNYADSVKGRFTISRDNAKNTVYLQMNSLKPEDTAVYYCAKDWAYRRHWVGFYYWGLGTQVTVSS,low polyreactivity
19,QVQLVESGGGLVQAGGSLRLSCPASGITFHGYAMGWYTQEPGKERELVAAITRGGSTYYADSVKGRFTISRDNAKNTVYLQMNSLKPEDTAVYYCAARRVGYSTNYYHYNYWGQGTQVSVSS,high polyreactivity
20,QVQLVESGGGLLQAGGSLRLSCAASGSIFSRYAMGWYRQAPGKERELVAAISKSGTRTYYADSVKGRFTISRDNAKNTVYLQMNSLKPEDTAVYYCNADSEISWYYPYEYWGQGTQVTVSS,high polyreactivity
21,QVQLVESGGGLVQAGGSLRLSCAASGRIFTRNAMGWYRQAPGKEREFVAAISWSGGSTYYADSVKGRFTISRDNAKNTFYLQMNSLKPEDTAVYFCAAKNSGGYVSWYDYWGQGTQVTVSS,low polyreactivity
22,QVHLVESGGGLVQAGGSLRLSCAASGSIFINNTMGWYRQAPGKERELVAAISITGGSTYYADSVKGRFTISRDNAKNTVYLQMNSLKPEDTAVYYCAADPLQLYDYNYWGQGTQVTVSS,low polyreactivity

row,Sequence,polyreactivity (PSR sort gate)
1,QVQLVESGGGLVQAGGSLRLSCAASGSIFRYYVMGWYRQAPGKERELVASISYSVGRTYYADSVKGRFTISRDNAKNTVYLQMNSLKPEDTAVYYCAADRYWPYYSAYYTSYRMDYWGQGTQVTVSS,high polyreactivity
2,QVQLVESGVGLVQAGGSLRLSCAASGSTFYRNTMGWYRQAPGKERELVAAINTSGASTYYADSVKGRFTISRDNAKNTVYLQMNSLKPEDTAVYYCAALYRGYTGGYKFYYWGQGTQVTVSS,high polyreactivity
3,QVQLVESGGGLVQAGGSLRLSCAASGSIFGANAMGWYRQAPGKERELVAAISTRGGRTYYADSVKGRFTISRDIAKNTVYLQMNSLKPEDTAVYYCAAYSSYPEYRRGKYDYWGQGTQVTVSS,high polyreactivity
4,QVQLVESGGGLVQAGGSLRLICAASGLTFGSYAMGWYRQAPGKERELVAAISRSGGSTYYADSVKGRFTISRDNAKNTVYLQMNSLKPEDTAVYYCNAVNPYYAPTDRRVGYDYWGQGTQVTVSS,high polyreactivity
5,QVQLVESGGGLVQAGGSLRLSCAASGSTFGYYTMGWYRQAPGKERELVAAITWLGGRTYYADSVKGRFTISRDNAKNTVYLQMNSLKPEDTAVYYCAARSTVLMDYWGQGTQVTVSS,high polyreactivity
6,QVQLVESGGGLVQAGGSLRLSCAASGSIFKRNAMGWYRQAPGKERELVAAITSSGGTTYYADSVKGRFTISRDNAKNTVYLQMNSLKPEDTAVYYCNAGYGVRSVRRFDYWGQGTQVTVSS,high polyreactivity
7,QVQLVESGGGLVQAGGSLRLSCAASGRIFTWYAMGWYRQAPGKERELVAAINASGGGTYADSVKGRFTISRDNAKNTVYLQMNSLKPEDTAVYYCNADIRAFYLYYSEGFSWRLDYWGQGTQVTVSS,high polyreactivity
8,QVQLVESGGGLVQAGGSLRLICAASGFTFPWYAMGWYRQAPGKERELVATITSGGRTNYADSVKGRFTISRDNAKNTVYLQMNSLKPEDTAVYYCAARASKYSYRTDPWHGDYWGQGTQVTVSS,high polyreactivity
9,QVQLVESGGGLVQAGGSLRLSCAASGSLFYVYAMGWYRQAPGKERELVAAITNYADSVKGRFTISRDNAKNTVYLQMNSLKPEDTAVYYCAADWWRVEMDYWGQGSQVTVSS,low polyreactivity
10,QVQLVESGGGLVQAGGSLRLSCAASGRTFRYYAMGWYRQAPGKERELVAAIDTSSGSTYYADSVKGRFTISRDNAKNTVYLQMNSLKPEDTAVYYCNATWWIPLIYDYWGQGTQVNVSS,low polyreactivity
11,QVQLVESGGGLVQAGGSLRLSCAASGITFVGYAMGWYRQAPGKERELVAVINTSSSTYYADSVKGRFTISRDNAKNTVYLQMNSLKPVDTAVYYCADYAYYRYFIPAVLYDYWGQGTQVTVSS,low polyreactivity
12,QVQLVESGGGLVQAGCSLRLSCAASGRIFTHNAMGWYRPAPGKERELVAAITSGGRTTYADSVKGRFTFSRDNAKNTVYLQMHSLNPEDTAVYYCNADTGLGSLDFDKRDYWGQGTQVTVSS,low polyreactivity
13,QVQLVESGGGLVHAGGILRLSCAASGSTFTPNAMGWYRQAPGKEREFVAAITYSGGTTYNADSVKGRFTISRDNAKKTVYLQRNRLKPEDTAVYYCAAVYFLLYYEAYYYWGQGTQVNVSS,low polyreactivity
14,QVHLVESGGGLVQAGGSLRLSCAASGIIISSYAMGWYRQAPGKERELVAAITWGGTRTNYADSVKGRFTISRDNAKNTVYLQMNSLKPEDTAVYYCAADKYLYGRLTRNFHYYYWGQGTQVTVSS,low polyreactivity
15,QVQLVESGGGLVQAGGSLRLSCAAAGITLYRYVMGWYRQAPGKERELVADISGRGTSTYYADSEKGRFTISRDNAKNTVYLQMNSLKPEDTAVYYCNAEYTKTGALVIPYTYYYAEDYWGQGTQVTVSS,low polyreactivity
16,QVQLVESGGGLVQAGGSLRLSCAASGSTFDYYTMGGYRQAPGKERELVAAISSSGGSTYYADSVKGRFTISRDNAKNNVYLQMISLKPEDTAVYYCAADASPYGDVYDYWGQGTQVTVSS,low polyreactivity
17,QVQLVESGGGLVQAGGSLRLSCAASGRIFSRYAMGWYRQAPGKERELVAVISRSGADTYYADSVKGRFTISRDNAKNTVYLQMNSLKPEDTAVYYCNAYSARRPHPMGYDYWGQGTQVTVSS,high polyreactivity
18,QFQLVESGGGLVQAGGSLRLSCAASGFNFGWYDMGWYRQAPGKERELVASISWSGSSTYYADSVKGRFTISRDNAKNTVYLQMNSLKPEDTAVYYCATPYWRRYDYWGQGTQVTVSS,high polyreactivity
19,QVQLVESGGGLVQAGGSLRLSCAASGRTFGVNAMGWYRQAPGKERELVARIRVSGGRTYYADSVKGRFTISRDNAKNTVYLQMNSLKPEDTAVYYCNAGYTYNRVIWPYYYWGQGTQVTVSS,high polyreactivity
20,QVQLVESGGGLVQAGGSLRLSCAASGRTLPKYVMGCYRQAPGKERELVDAISSSGDSTYYADSVKGRFTISRDNAKNTVYLQMNSLKPEDTAVYYCAKYDRNTYGYWGQGTQVTVSS,low polyreactivity
21,QVQLGESGGGLVQAGGSLRLSCAASGFTFYGNAMGWYRQAPGKERELVAAITYSGGRTYYADSVKGRFTISRDNAKNTVYLQMNSLKPEDTAVYYCARRRGYGQYDYWGQGTQVTVSS,high polyreactivity
